# Measured values published in paper doi:10.1101/462036 (bioRxiv, 2018).
# Target: the molecule itself
# Assay: SEC
protein,measurement,value
"RIG-5 IG1 (purified, hexahistidine tag) (domain or fragment, one N-linked glycan per monomer) GAPPTIQQPSMSSAVALLGQDVDFTCIVNDLGSHMVAFVKADSPPRLLSFDEKVFRRRNKYELKPRIGDLHNEWVLTIKNVQESDRGNYSCQINTEPITLSTGELDVKVP",stoichiometry N,2
